Measured values from the supplement of paper PMC10567573.

B1: NET1 (parent)
chain: RVRPLARVTSLANLISPVRNGAVR
B2: NECAB1 (parent)
chain: FSPNSPQFNVSGPGLLEEDNQWMT

Variants of: B1
Assay: protein stability index of a GFP-peptide fusion (GPS, HEK-293T) (PSI 1-6); higher = more stable
Details: c terminus: a fixed tail appended
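Further: lentivirally expressed fusions sorted by FACS into six bins by GFP to DsRed ratio, PSI derived from sequencing read proportions per bin multiplied by bin number.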

Protein stability index: each site, then its substitutions
A22: I 2.76, M 2.25, C 2.92, D 3.35, N 3.02, Y 2.54, Q 3.69, F 2.4, P 3.49, H 3.03, R 3.36, K 3.36, S 3.37, V 2.75, E 3.52, L 2.62, T 3.46, W 1.86, G 3.18
V18: L 2.94, P 3.12, E 3.63, N 3.2, Y 2.23, W 2.25, I 2.83, M 3.07, S 4.17, G 3.49, T 3.68, R 3.15, Q 3.63, F 2.29, K 2.31, H 2.75
V23: R 3.89, G 3.79, F 2.26, E 2.79, P 3.86, M 3.22, K 3.99, C 2.72, I 2.7, D 3.3, T 3.13, W 2.4, L 2.66, H 3.43, A 3.08, Y 2.9, N 3.68, Q 3.73, S 3.4
N20: H 3.3, P 2.94, M 2.54, F 2.26, A 2.91, G 2.96, R 2.57, L 3.29, E 3.33, T 2.79, D 3.2, Y 2.52, I 2.66, V 2.64, Q 3.75, S 2.74, W 2.33, K 2.49, C 2.72
G21: C 2.75, P 3.52, V 2.69, L 2.68, M 2.69, Q 3.12, I 2.87, N 2.88, K 2.71, A 3.62, T 3.35, H 2.85, S 3.56, Y 2.82, D 2.55, W 2.31, E 3.08, F 2.42, R 2.42
R24: K 3.47, T 2.39, Y 1.88, F 2.44, P 2.93, M 2.19, E 3.8, D 3.37, A 2.98, L 2.2, G 2.93, N 2.91, H 2.38, W 2.44, V 2.63, S 2.74, Q 3.37, I 2.54, C 3.21
R19: Q 3.06, M 2.53, Y 2.19, S 3.2, N 3.28, K 2.59, L 2.81, C 2.99, H 2.69, E 3.55, V 3.6, G 3.4, D 3.76, A 2.96, I 3.02, T 3.3, P 2.68, F 2.29, W 1.82

Variants of: B2
Assay: as above
Details: c terminus: a fixed tail appended

Protein stability index: each site, then its substitutions
S5: N 3.03, D 4.04, I 2.75, K 2.82, P 3.39, C 3, W 2.27, Q 3.7, T 2.98, G 2.72, H 3.16, Y 1.94, R 2.78, E 3.82, L 2.93, A 2.72, V 2.75, M 3.66, F 2
Q7: Y 1.72, G 2.74, P 2.9, A 1.92, V 2.22, C 2, F 2.59, H 2.94, T 3.09, D 4.25, I 2.11, N 2.89, L 1.45, W 2.64, S 2.66, K 2.27, E 3.88, M 2.02
